# According to patent US20210388087A1 (Chugai, published 2021):
# Substitutions are numbered along the chain they refer to.
# B1: H183/L072 VL E27aW (antibody, name in Kabat numbering, V domains shown)
# VH: QVQLVESGGGLVQPGRSLRLSCAASGFTFSNAWMHWVRQAPGKGLEWVAQIKDKGNAYAAYYAPSVKGRFTISRDDSKNSIYLQMNSLKTEDTAVYYCHYVHYASASTVLPAFGVDAWGQGTTVTVSS
# VL: DIVMTQSPLSLPVTPGEPASISCQASQWLVHMNRNTYLHWYQQKPGQAPRLLIYKVSNRFPGVPDRFSGSGSGTDFTLKISRVEAEDVGVYYCAQGTSVPFTFGQGTKLEIK
# notes: Dual-Ig
# B2: H183/L072 VL F55R (antibody, name in Kabat numbering, V domains shown)
# VH: B1 VH
# VL: B1 VL with W28E, F60R
# notes: Dual-Ig
# B3: H183/L072 VL F55P (antibody, name in Kabat numbering, V domains shown)
# VH: B1 VH
# VL: B1 VL with W28E, F60P
# notes: Dual-Ig
# B4: H183/L072 VL F55L (antibody, name in Kabat numbering, V domains shown)
# VH: B1 VH
# VL: B1 VL with W28E, F60L
# notes: Dual-Ig
# B5: H183/L072 VL F96T (antibody, name in Kabat numbering, V domains shown)
# VH: B1 VH
# VL: B1 VL with W28E, F101T
# notes: Dual-Ig
# B6: H183/L072 VL F55V (antibody, name in Kabat numbering, V domains shown)
# VH: B1 VH
# VL: B1 VL with W28E, F60V
# notes: Dual-Ig
# B7: H183/L072 VL F55H (antibody, name in Kabat numbering, V domains shown)
# VH: B1 VH
# VL: B1 VL with W28E, F60H
# notes: Dual-Ig
# B8: H183/L072 VL F55D (antibody, name in Kabat numbering, V domains shown)
# VH: B1 VH
# VL: B1 VL with W28E, F60D
# notes: Dual-Ig
# B9: H183/L072 VL F96K (antibody, name in Kabat numbering, V domains shown)
# VH: B1 VH
# VL: B1 VL with W28E, F101K
# notes: Dual-Ig
# B10: H183/L072 VL F55I (antibody, name in Kabat numbering, V domains shown)
# VH: B1 VH
# VL: B1 VL with W28E, F60I
# notes: Dual-Ig
# B11: H183/L072 VL F96L (antibody, name in Kabat numbering, V domains shown)
# VH: B1 VH
# VL: B1 VL with W28E, F101L
# notes: Dual-Ig
# B12: H183/L072 VL F55T (antibody, name in Kabat numbering, V domains shown)
# VH: B1 VH
# VL: B1 VL with W28E, F60T
# notes: Dual-Ig
# B13: H183/L072 VL F96M (antibody, name in Kabat numbering, V domains shown)
# VH: B1 VH
# VL: B1 VL with W28E, F101M
# notes: Dual-Ig
# B14: H183/L072 VL F55S (antibody, name in Kabat numbering, V domains shown)
# VH: B1 VH
# VL: B1 VL with W28E, F60S
# notes: Dual-Ig
# B15: H183/L072 VL G91E (antibody, name in Kabat numbering, V domains shown)
# VH: B1 VH
# VL: B1 VL with W28E, G96E
# notes: Dual-Ig
# B16: H183/L072 VL G91F (antibody, name in Kabat numbering, V domains shown)
# VH: B1 VH
# VL: B1 VL with W28E, G96F
# notes: Dual-Ig
# B17: H183/L072 VL F96N (antibody, name in Kabat numbering, V domains shown)
# VH: B1 VH
# VL: B1 VL with W28E, F101N
# notes: Dual-Ig
# B18: H183/L072 VL G91M (antibody, name in Kabat numbering, V domains shown)
# VH: B1 VH
# VL: B1 VL with W28E, G96M
# notes: Dual-Ig
# B19: H183/L072 VL F55M (antibody, name in Kabat numbering, V domains shown)
# VH: B1 VH
# VL: B1 VL with W28E, F60M
# notes: Dual-Ig
# B20: H183/L072 VL F96P (antibody, name in Kabat numbering, V domains shown)
# VH: B1 VH
# VL: B1 VL with W28E, F101P
# notes: Dual-Ig
# B21: H183/L072 VL F96W (antibody, name in Kabat numbering, V domains shown)
# VH: B1 VH
# VL: B1 VL with W28E, F101W
# notes: Dual-Ig
# B22: H183/L072 VL G91D (antibody, name in Kabat numbering, V domains shown)
# VH: B1 VH
# VL: B1 VL with W28E, G96D
# notes: Dual-Ig
# B23: H183/L072 VL G91L (antibody, name in Kabat numbering, V domains shown)
# VH: B1 VH
# VL: B1 VL with W28E, G96L
# notes: Dual-Ig
# B24: H183/L072 VL G91I (antibody, name in Kabat numbering, V domains shown)
# VH: B1 VH
# VL: B1 VL with W28E, G96I
# notes: Dual-Ig
# B25: H183/L072 VL F96G (antibody, name in Kabat numbering, V domains shown)
# VH: B1 VH
# VL: B1 VL with W28E, F101G
# notes: Dual-Ig
# B26: H183/L072 VL F96H (antibody, name in Kabat numbering, V domains shown)
# VH: B1 VH
# VL: B1 VL with W28E, F101H
# notes: Dual-Ig
# B27: H183/L072 VL F55Q (antibody, name in Kabat numbering, V domains shown)
# VH: B1 VH
# VL: B1 VL with W28E, F60Q
# notes: Dual-Ig
# B28: H183/L072 VL F96E (antibody, name in Kabat numbering, V domains shown)
# VH: B1 VH
# VL: B1 VL with W28E, F101E
# notes: Dual-Ig
# B29: H183/L072 VL G91K (antibody, name in Kabat numbering, V domains shown)
# VH: B1 VH
# VL: B1 VL with W28E, G96K
# notes: Dual-Ig
# B30: H183/L072 VL F55G (antibody, name in Kabat numbering, V domains shown)
# VH: B1 VH
# VL: B1 VL with W28E, F60G
# notes: Dual-Ig
# B31: H183/L072 VL F55K (antibody, name in Kabat numbering, V domains shown)
# VH: B1 VH
# VL: B1 VL with W28E, F60K
# notes: Dual-Ig
# B32: H183/L072 VL F96R (antibody, name in Kabat numbering, V domains shown)
# VH: B1 VH
# VL: B1 VL with W28E, F101R
# notes: Dual-Ig
# B33: H183/L072 VL G91H (antibody, name in Kabat numbering, V domains shown)
# VH: B1 VH
# VL: B1 VL with W28E, G96H
# notes: Dual-Ig
# B34: H183/L072 VL G91A (antibody, name in Kabat numbering, V domains shown)
# VH: B1 VH
# VL: B1 VL with W28E, G96A
# notes: Dual-Ig
# B35: H183/L072 VL F96D (antibody, name in Kabat numbering, V domains shown)
# VH: B1 VH
# VL: B1 VL with W28E, F101D
# notes: Dual-Ig
# B36: H183/L072 VL F96A (antibody, name in Kabat numbering, V domains shown)
# VH: B1 VH
# VL: B1 VL with W28E, F101A
# notes: Dual-Ig
# B37: H183/L072 VL F96Q (antibody, name in Kabat numbering, V domains shown)
# VH: B1 VH
# VL: B1 VL with W28E, F101Q
# notes: Dual-Ig
# B38: H183/L072 VL F96V (antibody, name in Kabat numbering, V domains shown)
# VH: B1 VH
# VL: B1 VL with W28E, F101V
# notes: Dual-Ig
# B39: H183/L072 VL F55E (antibody, name in Kabat numbering, V domains shown)
# VH: B1 VH
# VL: B1 VL with W28E, F60E
# notes: Dual-Ig
# B40: H183/L072 VL E27aY (antibody, name in Kabat numbering, V domains shown)
# VH: B1 VH
# VL: B1 VL with W28Y
# notes: Dual-Ig
# B41: H183/L072 VL F96S (antibody, name in Kabat numbering, V domains shown)
# VH: B1 VH
# VL: B1 VL with W28E, F101S
# notes: Dual-Ig
# B42: H183/L072 VL F55N (antibody, name in Kabat numbering, V domains shown)
# VH: B1 VH
# VL: B1 VL with W28E, F60N
# notes: Dual-Ig
# B43: H183/L072 VL F55W (antibody, name in Kabat numbering, V domains shown)
# VH: B1 VH
# VL: B1 VL with W28E, F60W
# notes: Dual-Ig
# B44: H183/L072 VL F96I (antibody, name in Kabat numbering, V domains shown)
# VH: B1 VH
# VL: B1 VL with W28E, F101I
# notes: Dual-Ig
# Biological target: T1, Human CD137 ECD (human)
# T1 construct: entry includes C-terminal His-tag and biotin acceptor peptide; also called human CD137 extracellular domain; 4-1BB
# T1 sequence (chain, as listed by the source limits assumed): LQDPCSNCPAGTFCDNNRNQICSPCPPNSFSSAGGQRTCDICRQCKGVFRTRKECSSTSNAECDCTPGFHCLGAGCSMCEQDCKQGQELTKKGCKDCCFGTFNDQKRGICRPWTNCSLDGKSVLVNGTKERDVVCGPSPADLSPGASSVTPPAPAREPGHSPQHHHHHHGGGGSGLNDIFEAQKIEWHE
# Test: Biacore SPR, vs parent H183/L072
row,Binder,fold change of affinity [fold]
1,B1,1
2,B2,0
3,B3,0
4,B4,0.2
5,B5,0
6,B6,0
7,B7,0
8,B8,0
9,B9,0
10,B10,0
11,B11,0
12,B12,0
13,B13,0
14,B14,0
15,B15,0
16,B16,0
17,B17,0
18,B18,0
19,B19,0.2
20,B20,0
21,B21,0
22,B22,0

row,Binder,fold change of affinity [fold]
1,B23,0
2,B24,0
3,B25,0
4,B26,0
5,B27,0
6,B28,0
7,B29,0
8,B30,0
9,B31,0
10,B32,0
11,B33,0
12,B34,0.4
13,B35,0
14,B36,0
15,B37,0
16,B38,0
17,B39,0
18,B40,1.1
19,B41,0
20,B42,0
21,B43,0.2
22,B44,0
